Data taken from PMC10374971, “In vivo and in vitro characterizations of melibiose permease (MelB) conformation-dependent nanobodies reveal sugar-binding mechanisms” (The Journal of Biological Chemistry, 2023).

Tests used:
[1] = biological target: MelBSt/Nb733 complex, formed beforehand (MelBSt 50 μM with Nb733 75 μM, molar ratio 1:1.5) (Salmonella enterica serovar Typhimurium | Lama glama) (UniProt P30878); assay: ITC; EIIA^Glc (450 μM) in the syringe, MelBSt (50 μM), free or complexed with Nb733 (75 μM), in the sample cell; 20 mM Tris-HCl pH 7.5, 100 mM NaCl, 0.01% DDM, 10% glycerol; 25 °C; one-site independent-binding model
[2] = biological target: MelBSt (Salmonella enterica serovar Typhimurium) (UniProt P30878); details: cited from earlier work
[3] = biological target: T1, Salmonella enterica serovar Typhimurium melibiose permease (MelBSt), wild type (Salmonella enterica serovar Typhimurium, UniProt P30878 6-476); assay: ITC; EIIA^Glc (450 μM) in the syringe, MelBSt (50 μM), free or complexed with Nb733 (75 μM), in the sample cell; 20 mM Tris-HCl pH 7.5, 100 mM NaCl, 0.01% DDM, 10% glycerol; 25 °C; one-site independent-binding model; details: both partners purified
T1 construct: melibiose permease MelB of Salmonella enterica serovar Typhimurium, wild type; Membrane protein in detergent (0.01% DDM) in the ITC; also called WT MelBSt; source: E. coli DW2, plasmid pK95 ΔAH/MelBSt/CHis10
T1 sequence (P30878 6-476): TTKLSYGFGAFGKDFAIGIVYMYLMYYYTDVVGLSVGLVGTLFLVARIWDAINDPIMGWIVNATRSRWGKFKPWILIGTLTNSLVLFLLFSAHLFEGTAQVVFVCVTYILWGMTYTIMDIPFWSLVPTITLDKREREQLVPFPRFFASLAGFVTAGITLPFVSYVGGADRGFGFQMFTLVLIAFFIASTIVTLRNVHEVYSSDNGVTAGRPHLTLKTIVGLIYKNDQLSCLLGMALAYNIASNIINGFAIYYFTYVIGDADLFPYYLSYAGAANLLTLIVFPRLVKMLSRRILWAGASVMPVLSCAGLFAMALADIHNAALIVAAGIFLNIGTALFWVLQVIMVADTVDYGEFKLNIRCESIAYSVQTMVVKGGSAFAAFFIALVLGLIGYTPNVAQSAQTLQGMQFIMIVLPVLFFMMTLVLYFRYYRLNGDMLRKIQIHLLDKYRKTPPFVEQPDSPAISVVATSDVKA

MelBSt/Nb733 complex, formed beforehand (MelBSt 50 μM with Nb733 75 μM, molar ratio 1:1.5) (Salmonella enterica serovar Typhimurium | Lama glama), sequence (P30878 whole entry, looked up, one chain of several): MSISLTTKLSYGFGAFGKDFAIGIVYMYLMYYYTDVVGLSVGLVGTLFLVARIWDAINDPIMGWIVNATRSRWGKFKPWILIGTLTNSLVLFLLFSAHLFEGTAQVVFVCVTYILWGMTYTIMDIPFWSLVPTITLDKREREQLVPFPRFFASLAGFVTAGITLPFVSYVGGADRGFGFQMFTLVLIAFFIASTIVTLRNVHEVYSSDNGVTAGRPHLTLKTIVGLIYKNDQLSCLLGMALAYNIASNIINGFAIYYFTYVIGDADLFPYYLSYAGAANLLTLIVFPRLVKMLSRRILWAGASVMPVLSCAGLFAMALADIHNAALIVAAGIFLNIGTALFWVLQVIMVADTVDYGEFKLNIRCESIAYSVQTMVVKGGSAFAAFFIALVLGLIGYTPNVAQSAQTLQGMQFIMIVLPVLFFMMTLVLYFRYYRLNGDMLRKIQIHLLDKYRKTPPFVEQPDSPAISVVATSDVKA
MelBSt (Salmonella enterica serovar Typhimurium), sequence (P30878 whole entry): as the sequence (P30878 whole entry, looked up, one chain of several) above

Question: What does the source list for “EIIA^Glc of the glucose-specific phosphoenolpyruvate/sugar phosphotransferase system, unphosphorylated (from UniProt P69783 1-169) (natural protein)”?
Answer: Kd [1]: 8.12 mM; dH [1]: -28.2 kJ/mol; stoichiometry N [1]: 0.76

Question: With EIIAGlc (from UniProt P69783) as the molecule, how does the Kd [2] read?
Answer: 3000 nM

B1: EIIA^Glc of the glucose-specific phosphoenolpyruvate/sugar phosphotransferase system, unphosphorylated (natural protein, UniProt P69783 1-169, looked up)
chain: MGLFDKLKSLVSDDKKDTGTIEIIAPLSGEIVNIEDVPDVVFAEKIVGDGIAIKPTGNKMVAPVDGTIGKIFETNHAFSIESDSGVELFVHFGIDTVELKGEGFKRIAEEGQRVKVGDTVIEFDLPLLEEKAKSTLTPVVISNMDEIKELIKLSGSVTVGETPVIRIKK
notes: regulatory enzyme EIIA^Glc of the glucose-specific phosphotransferase system, unphosphorylated; source: E. coli T7 Express, overexpressed, as described (24)
Question: For B1, which Kd [3] is on record?
Answer: 3.33 mM

Question: What about the dH [3] of the same molecule?
Answer: -39.9 kJ/mol

Question: What about the “stoichiometry N” value [3] of the same molecule?
Answer: 0.81
